The target of this series is T1, TCP4 N-terminal fragment (pRSETC-TCP4-1, TCP4-N224) (Arabidopsis thaliana, UniProt Q8LPR5 1-224).
T1 sequence: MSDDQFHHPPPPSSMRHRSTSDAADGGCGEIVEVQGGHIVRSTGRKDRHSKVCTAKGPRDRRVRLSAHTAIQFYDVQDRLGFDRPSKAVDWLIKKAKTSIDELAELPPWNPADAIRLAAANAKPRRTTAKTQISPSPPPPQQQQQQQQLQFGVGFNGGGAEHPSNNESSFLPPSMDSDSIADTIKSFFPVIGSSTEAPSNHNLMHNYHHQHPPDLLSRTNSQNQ
The experiment in a line: EMSA; 20 mM HEPES-KOH pH 7.8, 100 mM KCl, 1 mM EDTA, 0.1% BSA, 10 ng herring sperm DNA, 10% glycerol, ~10 fmol probe, 5-100 ng protein in 10 ul, 30 min room temperature; 6% native gel, 0.5x TBE. Particulars: protein: recombinant; tags: His; chain copies: 2; label: 32P-dCTP (Klenow) as probe.

B1: TCP4 consensus wild type (dsDNA)
DNA 1: AGATGGGGGACCACATAGATGT
DNA 2: ACATCTATGTGGTCCCCCATCT
As to B1, the binding result is reported as “binds”.

These data come from PMC2553836, “Control of Jasmonate Biosynthesis and Senescence by miR319 Targets”.
